Measurements from patent publication US20100081792A1 (published 2010).

Experiments:
[1] = target: T1, human VEGF (human, UniProt P15692-4 27-191); assay: receptor binding assay, dAb cross-linked by anti-Myc tag antibody
T1 construct: also called VEGF165

[2] = target: T2, mouse VEGF (mouse, UniProt Q00731-2 27-190, limits assumed); assay: as above
T2 sequence (looked up): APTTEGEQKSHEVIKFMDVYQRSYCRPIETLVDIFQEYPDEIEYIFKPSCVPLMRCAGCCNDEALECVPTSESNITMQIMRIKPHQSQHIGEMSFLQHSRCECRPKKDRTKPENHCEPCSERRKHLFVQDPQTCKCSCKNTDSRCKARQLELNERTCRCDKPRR

B1: TAR15-26 (other)
VH: EVQLLESGGGLVQPGGSLRLSCAASGFTFGAYPMMWVRQAPGKGLEWVSEISPSGSYTYYADSVKGRFTISRDNSKNTLYLQMNSLRAEDTAVYYCAKDPRKFDYWGQGTLVTVSS
notes: VH dAb; carries a Myc tag in the cross-linked assay
IC50 [1]: 3 nM | IC50 [2]: 10 nM
